Reference: the supplement of paper PMC10126150
± gives the standard deviation of the averaged measurements.

Tested on: ATP
Assay: switch fluorescence ratio, 500 uM ATP over buffer (Cy3 cluster intensity, sum of 5 cycles each) (fold (ratio)); higher = stronger signal-on switching upon ATP binding; sequences stand for … in TCGTCGGCAGCGTCAGATGTGTATAAGAGACAGTTTTTTTTTTTTTTTTTTTTTTTTT…TC
Settings: aptamer strand: ATP DNA aptamer (quencher-CACCTGGGGGAGTATTGCGGAGGAAGG + anchor), 100 nM annealed; ATP concentration: 500 uM
Method in brief: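 Cy3-labelled switching-strand clusters on a modified Illumina MiSeq flow-cell were annealed to 100 nM quencher-labelled ATP aptamer and imaged first in selection buffer, then after 15 min with 500 uM ATP at 22 °C. NaOH stripping and re-annealing separated each of five buffer/ATP cycles, and clusters outside 100-1000 RFU were excluded. The fluorescence ratio sums target-cycle Cy3 intensity over buffer-cycle Cy3 intensity per cluster and averages it per switch-domain sequence.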
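Note: ATP exposure 15 min at 22 °C before imaging.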

Sequence | switch fluorescence ratio
ACGGCGAGGT | 1.03 ± 0.032
TTTGGCGGGG | 0.999 ± 0.04
ACAGGGAGTA | 0.9864 ± 0.003
AAAGTTTCGC | 1 ± 0.019
TTATTTCGGG | 0.973 ± 0.013
GAGCACAGGT | 2.33 ± 0.12
AAAATAATTC | 1 ± 0.059
GGTACATGGG | 0.975 ± 0.021
CGAGTGGGGG | 0.987 ± 0.029
AGAGGTGGAG | 0.993 ± 0.03
TATGCTGGAG | 1.02 ± 0.0047
AGGCTATATT | 0.975 ± 0.01
TTACAGTTGT | 1.01 ± 0.038
CGTGGCCTGT | 0.994 ± 0.029
AAGTATATGG | 1.03 ± 0.029
TTCCAGGTTC | 1.04 ± 0.012
GTTCGCGGTG | 0.998 ± 0.017
TTTTGCCCGG | 1.01 ± 0.033
GCCGTAATGG | 1.24 ± 0.089
GCGTCAACTC | 1.1 ± 0.016
TTGGGATATG | 1.02 ± 0.065
AGTGATATTA | 1.01 ± 0.022
GAGGAGGGGA | 1.01 ± 0.018
TGTGGGGTCT | 1.02 ± 0.038
GACAATAGGC | 1.1 ± 0.045

Sequence | switch fluorescence ratio
GGGCATATTC | 1.155 ± 0.0089
GGGAAAGGGC | 0.961 ± 0.021
CTCATTGGCC | 0.983 ± 0.0025
GGGCCGGTTG | 0.995 ± 0.017
GTGATATTGT | 1.01 ± 0.011
TCGTTTTTGA | 0.985 ± 0.039
TTGGGTACGA | 0.997 ± 0.0043
ACATTATTGT | 0.982 ± 0.011
GCTTGTTTGG | 0.961 ± 0.013
AGGGGCGAGC | 0.9616 ± 0.005
GGTATTGGAG | 0.984 ± 0.015
TATTCATTAA | 0.969 ± 0.011
ACGTAATTGG | 1.21 ± 0.01
TGGCGATTTT | 0.978 ± 0.048
TTCGGACCTT | 1.21 ± 0.021
GAGTAAGAGG | 0.989 ± 0.059
TGACCCTTAG | 0.987 ± 0.025
CATGGTATGT | 1.01 ± 0.038
CATAGGGTGA | 1.01 ± 0.026
ACGAAAGGGA | 1.11 ± 0.029
GGCCTGGTGT | 1.29 ± 0.21
CGATATTGCA | 1.02 ± 0.025
TTGGAGGAAC | 1.07 ± 0.12
GAGTGAGTCG | 0.981 ± 0.022
GACCCTTACC | 1.38 ± 0.014

Sequence | switch fluorescence ratio
TTTTTCATAT | 1.08 ± 0.2
ATTGTCGCCG | 1.02 ± 0.043
GGCTTCTGCT | 0.959 ± 0.022
TTGGGGCCAT | 0.999 ± 0.029
GCGACTTGGG | 1.04 ± 0.054
ACTACAAGTT | 1 ± 0.026
GGGGACGATG | 0.996 ± 0.019
TTAGCTAGTT | 0.987 ± 0.042
GGATTGTGAA | 1 ± 0.025
CAATTGCGGG | 0.988 ± 0.055
GTTATAGTGG | 0.981 ± 0.01
CGGTATATTT | 0.9712 ± 0.0058
ATACAAGGCT | 1.02 ± 0.03
ACATAGTAAT | 1.001 ± 0.0092
GCGTTCCTTG | 1.071 ± 0.0017
GACATTTGTT | 0.986 ± 0.014
CAGTTGGACG | 1.04 ± 0.11
ATACGGGATT | 1.044 ± 0.0064
CTTTCCTATG | 1.07 ± 0.019
GCGATGTTTG | 0.998 ± 0.023
AGTAGGTTTT | 1.04 ± 0.078
GTTAGGGGGT | 0.994 ± 0.027
GGGTTTAAGT | 0.986 ± 0.023
ATTCAGCATT | 1.05 ± 0.02
CGGGTGGCTG | 0.995 ± 0.035

Sequence | switch fluorescence ratio
TTGTGGGGCT | 0.9974 ± 0.009
TGTTGCATAA | 0.968 ± 0.016
TTGGAAACAG | 1 ± 0.014
AAGGACTAAC | 1.12 ± 0.012
AATTTTAGGT | 0.959 ± 0.015
GATTTTTATG | 0.977 ± 0.011
GAAACCGTGG | 1.06 ± 0.019
ATTATTTGCC | 0.99 ± 0.01
TAGTTAGGCG | 0.959 ± 0.028
TACAAGATGT | 1.01 ± 0.029
CTTGAAGGGA | 0.995 ± 0.029
TGAATATAGT | 1.004 ± 0.0042
TGGGATGGGT | 1.02 ± 0.092
ATGGTATGCT | 0.992 ± 0.022
TTTGTGTTTA | 0.9791 ± 0.0042
TCTAAAGGAT | 1.006 ± 0.004
CTGCGGATGG | 1.058 ± 0.0066
TTTTGGGTTT | 1.02 ± 0.086
AGAGGCTTAA | 1.01 ± 0.011
AGAGTTAAAA | 1.04 ± 0.0077
ATACTGGGAT | 1.031 ± 0.0015
AGGTGTTAAA | 0.9941 ± 0.0033
TAGCCTGTTG | 0.9667 ± 0.002
ACCGCCGTCA | 1.08 ± 0.012
TTTGGGTTTG | 1.01 ± 0.029
